In PMC8354229:
Values joined by “and” are separate entries in the source; they are usually repeats but may differ in a detail not shown here. Equal values may be shown once.

B1: HIV-1 Vpr (WT), expressed from pNL4-3unc, P12520 1-96 (natural protein)
chain: MEQAPEDQGPQREPYNEWTLELLEELKSEAVRHFPRIWLHNLGQHIYETYGDTWAGVEAIIRILQQLLFIHFRIGCRHSRIGVTRQRRARNGASRS

What was measured:
[1] = target: HIV-1 Vpr (WT), expressed from pNL4-3unc (UniProt P12520); experiment: immunoblot of virions (Vpr incorporation, Vpr/CA ratio, LI-COR quantification); conditions: equivalent RT units of virus concentrated by ultracentrifugation through a sucrose cushion; parent: est. 100; read off a plot
[2] = target: HIV-1 Gag with WT p6, expressed from pNL4-3unc (HIV-1 (NL4-3-based proviral plasmid)) (UniProt P12493); experiment: virion incorporation (virions pelleted through sucrose, immunoblot); virus from 293T cells transfected with pNL4-3unc proviral plasmids (Gag and Vpr from the same construct); concentrated through a 20% (w/v) sucrose cushion, 2 h, 10,000 g, 4°C; equivalent RT units on SDS-PAGE; anti-Vpr and anti-CA immunoblot; Vpr/CA ratio relative to WT virions (LI-COR)
[3] = target: HIV-1 Gag p6 Mutant 11 (LXXL to alanines) (HIV-1 (NL4-3-based proviral plasmid)) (UniProt P12493); experiment: as above
[4] = target: HIV-1 Gag p6 Mutant 4 (FRFG to alanines) (HIV-1 (NL4-3-based proviral plasmid)) (UniProt P12493); experiment: as above
[5] = target: HIV-1 Gag p6 Mutant 12 (alanine substitutions in the LXXLF motif) (HIV-1 (NL4-3-based proviral plasmid)) (UniProt P12493); experiment: as above
[6] = target: T1, HIV-1 Vpr (WT), expressed from pNL4-3unc (HIV-1 (NL4-3-based proviral plasmid)), P12520; experiment: cross-linking; virions pelleted through sucrose, 1% formaldehyde in PBS 20 min at room temperature, quenched with 250 mM Tris-HCl pH 7.5, pelleted again through sucrose, SDS-PAGE and anti-Vpr immunoblot; conditions: remark: other sources report otherwise
T1 chain: B1 chain

Molecule	percent of parent [1]	also measured
HIV-1 Gag with WT p6, expressed from pNL4-3unc (from UniProt P12493) I31A; D32A; K33A	90 % WT	
HIV-1 Gag with WT p6, expressed from pNL4-3unc (from UniProt P12493) P11A; E12A; E13A; S14A	62 % WT	
HIV-1 Gag with WT p6, expressed from pNL4-3unc (from UniProt P12493) E19A; E20A; T21A; T22A	52 % WT	
HIV-1 Vpr L67A (from UniProt P12520 1-96) (natural protein)		fold reduction of Vpr incorporation against WT Vpr [2]: 2 fold; fold lower Vpr packaging than the same p6 mutant with WT Vpr [3]: > 10 fold; fold lower Vpr packaging than the same p6 mutant with WT Vpr [4]: > 10 fold
HIV-1 Gag with WT p6, expressed from pNL4-3unc (from UniProt P12493) T23A; P24A; S25A; Q26A	59 % WT	
HIV-1 Vpr (WT), expressed from pNL4-3unc (from UniProt P12520 1-96) (natural protein)		Vpr incorporated, % of WT virions (Vpr/CA ratio) [3]: < 30%; Vpr incorporated, % of WT virions (Vpr/CA ratio) [5]: < 30%; Vpr incorporated, % of WT virions (Vpr/CA ratio) [4]: < 30%
HIV-1 Gag with WT p6, expressed from pNL4-3unc (from UniProt P12493) P37A; L38A; S40A	62 % WT	
HIV-1 Gag with WT p6, expressed from pNL4-3unc (from UniProt P12493) P49A; S50A; S51A; Q52A	76 % WT	
HIV-1 Gag with WT p6, expressed from pNL4-3unc (from UniProt P12493) K27A; Q28A; E29A; P30A	93 % WT	
HIV-1 Gag with WT p6, expressed from pNL4-3unc (from UniProt P12493) R4A; P5A; E6A	85 % WT	
HIV-1 Gag with WT p6, expressed from pNL4-3unc (from UniProt P12493) E34A; L35A; Y36A	73 % WT	
B1		stoichiometry N [6]: 2 and 3
